Results as given in publication PMC9465852, “Comparative analyses of vertebrate CPEB proteins define two subfamilies with coordinated yet distinct functions in post-transcriptional gene regulation”.

Legend:
CPEB4 [1] = target: T1, CPEB4 (Xenopus laevis, UniProt A0A1L8GV75 1-702); assay: AlphaScreen; 50 nM protein, 0.5-75 nM RNA; CPEB4 binds A- and G-CPE equally well; 10 mM HEPES pH 7.4, 100 mM KCl, 3 mM MgCl2, 1 mM DTT, 0.2 mg/mL tRNA, 0.1% Tween; room temperature; 50 or 75 nM protein; conditions: protein: recombinant; tags: 6xHis; label: 3' biotin; single strand
CPEB4 [2] = target: T1, CPEB4; assay: AlphaScreen; 50 nM protein, 0.5-75 nM RNA; equal to or better than CPE-A; 10 mM HEPES pH 7.4, 100 mM KCl, 3 mM MgCl2, 1 mM DTT, 0.2 mg/mL tRNA, 0.1% Tween; room temperature; 50 or 75 nM protein; conditions: protein: recombinant; tags: 6xHis; label: 3' biotin; single strand

T1 sequence (A0A1L8GV75 entry or part of it): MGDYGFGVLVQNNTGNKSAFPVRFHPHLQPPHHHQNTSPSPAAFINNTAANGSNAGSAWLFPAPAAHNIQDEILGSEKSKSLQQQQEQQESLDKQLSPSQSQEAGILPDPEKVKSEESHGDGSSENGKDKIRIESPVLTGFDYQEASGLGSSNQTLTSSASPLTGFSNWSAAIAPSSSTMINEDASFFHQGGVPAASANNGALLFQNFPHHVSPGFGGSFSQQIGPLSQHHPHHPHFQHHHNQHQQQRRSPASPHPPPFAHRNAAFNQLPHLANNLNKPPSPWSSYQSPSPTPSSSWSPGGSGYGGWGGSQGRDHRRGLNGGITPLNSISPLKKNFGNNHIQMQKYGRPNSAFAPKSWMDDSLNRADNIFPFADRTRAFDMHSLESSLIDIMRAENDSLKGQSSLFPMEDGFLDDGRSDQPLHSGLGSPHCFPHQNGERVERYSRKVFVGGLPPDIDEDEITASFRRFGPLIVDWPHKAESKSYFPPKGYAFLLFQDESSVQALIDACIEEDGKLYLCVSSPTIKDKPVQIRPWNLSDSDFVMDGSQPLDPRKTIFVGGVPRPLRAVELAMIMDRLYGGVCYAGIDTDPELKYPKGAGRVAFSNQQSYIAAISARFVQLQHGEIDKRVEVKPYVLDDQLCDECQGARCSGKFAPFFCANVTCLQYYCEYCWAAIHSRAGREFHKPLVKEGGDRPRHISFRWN

Binder	binding result (CPEB4 [1])	binding result (CPEB4 [2])
AGUGUACAGUGUUUUUAAUAGUUUGUUG (ssRNA, 3' biotin) [CPE-A]	binds	
AGUGUACAGUGUUUUUGUAAGUUUGUUG (ssRNA, 3' biotin) [CPE-G]		binds
